# In ChEMBL document CHEMBL1908105, “UDP-glucuronosyltransferases and clinical drug-drug interactions” (Pharmacol Ther, 2005):
# Where “and” joins values, the source holds several entries; their conditions need not be identical. Identical values can stand only once.
# T1: UDP-glucuronosyltransferase 1A1 (Homo sapiens, UniProt P22309)
# T1 sequence (P22309 whole entry): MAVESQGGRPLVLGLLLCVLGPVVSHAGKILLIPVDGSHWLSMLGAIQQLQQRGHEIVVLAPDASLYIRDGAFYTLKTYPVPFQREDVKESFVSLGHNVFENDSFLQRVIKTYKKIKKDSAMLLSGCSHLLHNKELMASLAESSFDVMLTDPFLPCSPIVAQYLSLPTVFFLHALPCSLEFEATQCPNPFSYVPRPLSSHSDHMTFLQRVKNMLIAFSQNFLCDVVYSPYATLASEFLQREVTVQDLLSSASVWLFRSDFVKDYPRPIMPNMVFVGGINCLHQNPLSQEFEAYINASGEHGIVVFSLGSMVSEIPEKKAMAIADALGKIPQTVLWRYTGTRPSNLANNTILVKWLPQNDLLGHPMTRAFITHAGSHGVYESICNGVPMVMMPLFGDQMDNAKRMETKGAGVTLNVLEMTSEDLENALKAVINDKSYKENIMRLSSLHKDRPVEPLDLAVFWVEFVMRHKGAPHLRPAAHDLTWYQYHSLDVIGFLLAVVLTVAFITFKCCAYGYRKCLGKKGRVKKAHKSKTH
# T2: UDP-glucuronosyltransferase 1A4 (Homo sapiens, UniProt P22310)
# T2 sequence (P22310 whole entry): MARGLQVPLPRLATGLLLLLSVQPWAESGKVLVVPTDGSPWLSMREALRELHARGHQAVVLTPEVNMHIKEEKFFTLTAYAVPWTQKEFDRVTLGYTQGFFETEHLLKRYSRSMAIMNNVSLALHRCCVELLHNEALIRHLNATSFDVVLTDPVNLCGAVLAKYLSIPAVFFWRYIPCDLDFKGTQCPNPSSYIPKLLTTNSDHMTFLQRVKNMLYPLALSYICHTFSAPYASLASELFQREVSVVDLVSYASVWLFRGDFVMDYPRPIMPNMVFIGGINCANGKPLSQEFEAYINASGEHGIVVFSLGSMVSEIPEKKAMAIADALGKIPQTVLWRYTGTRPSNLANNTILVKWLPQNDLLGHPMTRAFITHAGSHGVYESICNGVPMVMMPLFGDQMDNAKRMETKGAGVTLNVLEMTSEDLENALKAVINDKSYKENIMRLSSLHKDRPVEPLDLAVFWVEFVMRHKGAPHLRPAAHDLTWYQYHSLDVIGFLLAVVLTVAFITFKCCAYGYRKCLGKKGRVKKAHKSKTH
# T3: UDP-glucuronosyltransferase 1A9 (Homo sapiens, UniProt O60656)
# T3 sequence (O60656 whole entry): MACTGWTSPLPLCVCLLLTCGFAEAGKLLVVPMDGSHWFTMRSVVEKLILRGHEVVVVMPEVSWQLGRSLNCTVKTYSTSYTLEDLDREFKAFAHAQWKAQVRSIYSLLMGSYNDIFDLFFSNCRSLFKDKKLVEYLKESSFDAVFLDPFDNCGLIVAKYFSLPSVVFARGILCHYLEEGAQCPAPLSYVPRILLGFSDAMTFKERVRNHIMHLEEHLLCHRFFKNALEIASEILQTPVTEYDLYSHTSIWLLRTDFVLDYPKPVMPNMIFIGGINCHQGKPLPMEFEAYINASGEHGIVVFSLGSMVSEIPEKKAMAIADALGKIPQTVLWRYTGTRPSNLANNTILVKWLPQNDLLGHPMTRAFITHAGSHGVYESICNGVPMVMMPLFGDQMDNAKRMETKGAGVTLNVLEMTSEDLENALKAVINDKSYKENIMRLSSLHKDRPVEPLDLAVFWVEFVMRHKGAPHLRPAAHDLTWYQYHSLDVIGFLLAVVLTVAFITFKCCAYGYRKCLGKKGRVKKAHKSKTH
# B1: UDP-glucuronosyltransferase 1A1 (Homo sapiens) (protein)
# chain: T1 sequence (P22309 whole entry)
# B2: UDP-glucuronosyltransferase 1A3 (Homo sapiens) (protein)
# chain: MATGLQVPLPWLATGLLLLLSVQPWAESGKVLVVPIDGSHWLSMREVLRELHARGHQAVVLTPEVNMHIKEENFFTLTTYAISWTQDEFDRHVLGHTQLYFETEHFLKKFFRSMAMLNNMSLVYHRSCVELLHNEALIRHLNATSFDVVLTDPVNLCAAVLAKYLSIPTVFFLRNIPCDLDFKGTQCPNPSSYIPRLLTTNSDHMTFMQRVKNMLYPLALSYICHAFSAPYASLASELFQREVSVVDILSHASVWLFRGDFVMDYPRPIMPNMVFIGGINCANRKPLSQEFEAYINASGEHGIVVFSLGSMVSEIPEKKAMAIADALGKIPQTVLWRYTGTRPSNLANNTILVKWLPQNDLLGHPMTRAFITHAGSHGVYESICNGVPMVMMPLFGDQMDNAKRMETKGAGVTLNVLEMTSEDLENALKAVINDKSYKENIMRLSSLHKDRPVEPLDLAVFWVEFVMRHKGAPHLRPAAHDLTWYQYHSLDVIGFLLAVVLTVAFITFKCCAYGYRKCLGKKGRVKKAHKSKTH
# B3: UDP-glucuronosyltransferase 1A4 (Homo sapiens) (protein)
# chain: T2 sequence (P22310 whole entry)
# Experiments:
# [1] = Inhibition of AZT (0.02 mM) glucuronidation by human UGT enzymes from liver microsomes; set-up: species or system Microsome
# [2] = target: T1, UDP-glucuronosyltransferase 1A1; assay: (§1) Drug glucuronidation reaction catalyzed by human recombinant UGT1A1
# [3] = target: T2, UDP-glucuronosyltransferase 1A4; assay: (§2) Drug glucuronidation reaction catalyzed by human recombinant UGT1A4
# [4] = target: T3, UDP-glucuronosyltransferase 1A9; assay: Drug glucuronidation reaction catalyzed by human recombinant UGT1A9
# [5] = target: UDP-glucuronosyltransferase 2B15 (Homo sapiens, UniProt P54855); assay: Drug glucuronidation reaction catalyzed by human recombinant UGT2B15
# [6] = substrate: C#C[C@]1(O)CC[C@H]2[C@@H]3CCc4cc(O)ccc4[C@H]3CC[C@@]21C; assay: as §1
# [7] = substrate: C=CCN1CC[C@]23c4c5ccc(O)c4O[C@H]2[C@@H](O)C=C[C@H]3[C@H]1C5; assay: as §1
# [8] = substrate: CC(=O)Nc1ccc(O)cc1; assay: as §1
# [9] = substrate: CC(O)/C(=C(\c1ccccc1)c1ccc(OCCN(C)C)cc1)c1ccccc1; assay: as §1
# [10] = substrate: CCN(CC)C(=O)/C(C#N)=C/c1cc(O[C@@H]2O[C@@H](C(=O)O)[C@@H](O)[C@H](O)[C@@H]2O)c(O)c([N+](=O)[O-])c1; assay: as §1
# [11] = substrate: CCN(CC)C(=O)/C(C#N)=C\c1cc(O[C@@H]2O[C@@H](C(=O)O)[C@@H](O)[C@H](O)[C@@H]2O)c(O)c([N+](=O)[O-])c1; assay: as §1
# [12] = substrate: CCOC(=O)Nc1ccc(NCc2ccc(F)cc2)cc1N; assay: as §1
# [13] = substrate: CCc1c2c(nc3ccc(O)cc13)-c1cc3c(c(=O)n1C2)COC(=O)[C@]3(O)CC; assay: as §1
# [14] = substrate: CN1CC[C@]23c4c5ccc(O[C@@H]6O[C@H](C(=O)O)[C@@H](O)[C@H](O)[C@H]6O)c4O[C@H]2[C@@H](O)C=C[C@H]3[C@H]1C5; assay: as §1
# [15] = substrate: CO[C@]12CC[C@@]3(C[C@@H]1[C@](C)(O)C(C)(C)C)[C@H]1Cc4ccc(O)c5c4[C@@]3(CCN1CC1CC1)[C@H]2O5; assay: as §1
# [16] = substrate: COc1c(C)c2c(c(O)c1C/C=C(\C)CCC(=O)O)C(=O)OC2; assay: as §1
# [17] = substrate: COc1cc([C@@H]2c3cc4c(cc3[C@@H](O[C@@H]3O[C@@H]5CO[C@@H](C)O[C@H]5[C@H](O)[C@H]3O)[C@H]3COC(=O)[C@H]23)OCO4)cc(OC)c1O; assay: as §1
# [18] = substrate: O=C1CC[C@@]2(O)[C@H]3Cc4ccc(O)c5c4[C@@]2(CCN3CC2CC2)[C@H]1O5; assay: as §1
# [19] = substrate: O=C1[C@H](CC[C@H](O)c2ccc(F)cc2)[C@@H](c2ccc(O)cc2)N1c1ccc(F)cc1; assay: as §1
# [20] = substrate: Cc1c(Cl)cccc1Nc1ncccc1C(=O)O; assay: not read
# [21] = substrate: CC(C(=O)O)c1cccc(C(=O)c2ccccc2)c1; assay: (§3) Drug glucuronidation reaction catalyzed by human recombinant UGT1A3
# [22] = substrate: CC(C)Cc1ccc(C(C)C(=O)O)cc1; assay: as §3
# [23] = substrate: CN(C)CCCN1c2ccccc2CCc2ccccc21; assay: as §3
# [24] = substrate: CN1CCC(=C2c3ccccc3C=Cc3ccccc32)CC1; assay: as §3
# [25] = substrate: CN1CCC(=C2c3ccccc3CC(=O)c3sccc32)CC1; assay: as §3
# [26] = substrate: CN1CC[C@]23c4c5ccc(O[C@@H]6O[C@H](C(=O)O)[C@@H](O)[C@H](O)[C@H]6O)c4O[C@H]2[C@@H](O)C=C[C@H]3[C@H]1C5; assay: as §3
# [27] = substrate: CO[C@]12CC[C@@]3(C[C@@H]1[C@](C)(O)C(C)(C)C)[C@H]1Cc4ccc(O)c5c4[C@@]3(CCN1CC1CC1)[C@H]2O5; assay: as §3
# [28] = substrate: O=C1[C@H](CC[C@H](O)c2ccc(F)cc2)[C@@H](c2ccc(O)cc2)N1c1ccc(F)cc1; assay: as §3
# [29] = substrate: CC(O)/C(=C(\c1ccccc1)c1ccc(OCCN(C)C)cc1)c1ccccc1; assay: as §2
# [30] = substrate: CC/C(=C(\c1ccccc1)c1ccc(OCCN(C)C)cc1)c1ccccc1; assay: as §2
# [31] = substrate: CC[C@@H]([C@H](C)O)n1ncn(-c2ccc(N3CCN(c4ccc(OC[C@@H]5CO[C@@](Cn6cncn6)(c6ccc(F)cc6F)C5)cc4)CC3)cc2)c1=O; assay: as §2
# [32] = substrate: CCc1c2c(nc3ccc(O)cc13)-c1cc3c(c(=O)n1C2)COC(=O)[C@]3(O)CC; assay: as §2
# [33] = substrate: CN1CCC(=C2c3ccccc3C=Cc3ccccc32)CC1; assay: as §2
# [34] = substrate: CN1CCC(=C2c3ccccc3CC(=O)c3sccc32)CC1; assay: as §2
# UDP-glucuronosyltransferase 2B15, sequence (P54855 whole entry): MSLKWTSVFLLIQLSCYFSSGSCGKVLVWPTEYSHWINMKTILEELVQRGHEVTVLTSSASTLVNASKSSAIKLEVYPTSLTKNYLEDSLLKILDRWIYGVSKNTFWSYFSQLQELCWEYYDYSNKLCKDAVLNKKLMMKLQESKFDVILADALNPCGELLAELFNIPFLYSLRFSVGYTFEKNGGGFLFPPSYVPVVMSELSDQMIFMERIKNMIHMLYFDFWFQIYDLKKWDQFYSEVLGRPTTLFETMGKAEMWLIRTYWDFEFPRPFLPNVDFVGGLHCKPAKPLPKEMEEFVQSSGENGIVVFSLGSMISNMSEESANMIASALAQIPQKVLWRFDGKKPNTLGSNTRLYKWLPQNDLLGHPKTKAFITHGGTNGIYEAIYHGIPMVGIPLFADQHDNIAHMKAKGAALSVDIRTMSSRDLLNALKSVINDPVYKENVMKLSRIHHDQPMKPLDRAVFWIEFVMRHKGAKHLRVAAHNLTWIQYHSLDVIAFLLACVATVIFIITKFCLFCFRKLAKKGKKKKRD
molecule,measurement,setting,value
O=C1C(O)=C([C@H]2CC[C@H](c3ccc(Cl)cc3)CC2)C(=O)c2ccccc21 [ATOVAQUONE],IC50,[1],> 273 µM
CC(O)/C(=C(\c1ccccc1)c1ccc(OCCN(C)C)cc1)c1ccccc1 (stereo in doubt; trans),Vmax,[2],166 pmol/min/mg protein
same,Vmax,[3],547 pmol/min/mg protein
same,Vmax,[4],72 pmol/min/mg protein
same,Vmax,[5],70 pmol/min/mg protein
CC(O)/C(=C(\c1ccccc1)c1ccc(OCCN(C)C)cc1)c1ccccc1 (stereo in doubt; cis),Vmax,[2],291 pmol/min/mg protein
same,Vmax,[3],315 pmol/min/mg protein
same,Vmax,[4],57 pmol/min/mg protein
same,Vmax,[5],720 pmol/min/mg protein
OC(Cn1cncn1)(Cn1cncn1)c1ccc(F)cc1F [FLUCONAZOLE],IC50,[1],163 µM
B1,Km,[6],9 µM and 20 µM
same,Km,[7],2070 µM
same,Vmax,[7],2e-06 µmol/min/mg
same,Km,[8],9400 µM
same,Vmax,[8],0.0013 µmol/min/mg
same,Km,[9],138 µM and 129 µM
same,Km,[10],31 µM
same,Vmax,[10],4e-06 µmol/min/mg
same,Km,[11],93 µM
same,Vmax,[11],5e-06 µmol/min/mg
same,Km,[12],460 µM
same,Km,[13],24 µM
same,Vmax,[13],0.000134 µmol/min/mg
same,Km,[14],18700 µM
same,Vmax,[14],4.5e-06 µmol/min/mg
same,Km,[15],57 µM and 69 µM
same,Km,[16],185 µM
same,Vmax,[16],0.000336 µmol/min/mg
same,Km,[17],503 µM
same,Vmax,[17],0.000267 µmol/min/mg
same,Km,[18],1310 µM
same,Vmax,[18],2e-06 µmol/min/mg
same,Km,[19],64 µM
same,Vmax,[19],0.00071 µmol/min/mg
B2,Km,[20],624 µM
same,Vmax,[20],5.2e-05 µmol/min/mg
same,Km,[21],84 µM
same,Vmax,[21],7.6e-05 µmol/min/mg
same,Km,[22],230 µM
same,Vmax,[22],8.8e-05 µmol/min/mg
same,Km,[23],472 µM
same,Vmax,[23],1e-05 µmol/min/mg
same,Km,[24],240 µM
same,Vmax,[24],0.000134 µmol/min/mg
same,Km,[25],225 µM and 123 µM
same,Km,[26],3200 µM
same,Vmax,[26],1e-05 µmol/min/mg
same,Km,[27],55 µM
same,Vmax,[27],7.5e-05 µmol/min/mg
same,Km,[28],42 µM
same,Vmax,[28],0.00048 µmol/min/mg
B3,Km,[29],95 µM and 101 µM
same,Km,[30],32 µM
same,Vmax,[30],0.000402 µmol/min/mg
same,Km,[31],16 µM
same,Vmax,[31],1.7e-05 µmol/min/mg
same,Km,[32],147 µM
same,Vmax,[32],0.000132 µmol/min/mg
same,Km,[33],62 µM
same,Vmax,[33],4.9e-05 µmol/min/mg
same,Km,[34],59 µM and 86 µM
